Data on 2 variants can be found in IntAct's records for PubMed 19412162.

The chains are these.
B1: F-box only protein 31 (Homo sapiens), Q5XUX0 (parent)
chain: MAVCARLCGVGPSRGCRRRQQRRGPAETAAADSEPDTDPEEERIEASAGVGGGLCAGPSPPPPRCSLLELPPELLVEIFASLPGTDLPSLAQVCTKFRRILHTDTIWRRRCREEYGVCENLRKLEITGVSCRDVYAKLLHRYRHILGLWQPDIGPYGGLLNVVVDGLFIIGWMYLPPHDPHVDDPMRFKPLFRIHLMERKAATVECMYGHKGPHHGHIQIVKKDEFSTKCNQTDHHRMSGGRQEEFRTWLREEWGRTLEDIFHEHMQELILMKFIYTSQYDNCLTYRRIYLPPSRPDDLIKPGLFKGTYGSHGLEIVMLSFHGRRARGTKITGDPNIPAGQQTVEIDLRHRIQLPDLENQRNFNELSRIVLEVRERVRQEQQEGGHEAGEGRGRQGPRESQPSPAQPRAEAPSKGPDGTPGEDGGEPGDAVAAAEQPAQCGQGQPFVLPVGVSSRNEDYPRTCRMCFYGTGLIAGHGFTSPERTPGVFILFDEDRFGFVWLELKSFSLYSRVQATFRNADAPSPQAFDEMLKNIQSLTS

In the experiment the parent is B1. The conditions noted are these: with atm_human ATM.
On to MAVCARLCGVGPSRGCRRRQQRRGPAETAAADSEPDTDPEEERIEASAGVGGGLCAGPSPPPPRCSLLELPPELLVEIFASLPGTDLPSLAQVCTKFRRILHTDTIWRRRCREEYGVCENLRKLEITGVSCRDVYAKLLHRYRHILGLWQPDIGPYGGLLNVVVDGLFIIGWMYLPPHDPHVDDPMRFKPLFRIHLMERKAATVECMYGHKGPHHGHIQIVKKDEFSTKCNQTDHHRMSGGRQEEFRTWLREEWGRTLEDIFHEHMQELILMKFIYTSQYDNCLTYRRIYLPPSRPDDLIKPGLFKGTYGSHGLEIVMLSFHGRRARGTKITGDPNIPAGQQTVEIDLRHRIQLPDLENQRNFNELSRIVLEVRERVRQEQQEGGHEAGEGRGRQGPREAQPSPAQPRAEAPSKGPDGTPGEDGGEPGDAVAAAEQPAQCGQGQPFVLPVGVSSRNEDYPRTCRMCFYGTGLIAGHGFTSPERTPGVFILFDEDRFGFVWLELKSFSLYSRVQATFRNADAPSPQAFDEMLKNIQSLTS [S400A], for which the “effect of a mutation on the interaction” value was “disrupting interaction”. Then MAVCARLCGVGPSRGCRRRQQRRGPAETAAADSEPDTDPEEERIEASAGVGGGLCAGPSPPPPRCSLLELPPELLVEIFASLPGTDLPSLAQVCTKFRRILHTDTIWRRRCREEYGVCENLRKLEITGVSCRDVYAKLLHRYRHILGLWQPDIGPYGGLLNVVVDGLFIIGWMYLPPHDPHVDDPMRFKPLFRIHLMERKAATVECMYGHKGPHHGHIQIVKKDEFSTKCNQTDHHRMSGGRQEEFRTWLREEWGRTLEDIFHEHMQELILMKFIYTAQYDNCLTYRRIYLPPSRPDDLIKPGLFKGTYGSHGLEIVMLSFHGRRARGTKITGDPNIPAGQQTVEIDLRHRIQLPDLENQRNFNELSRIVLEVRERVRQEQQEGGHEAGEGRGRQGPRESQPSPAQPRAEAPSKGPDGTPGEDGGEPGDAVAAAEQPAQCGQGQPFVLPVGVSSRNEDYPRTCRMCFYGTGLIAGHGFTSPERTPGVFILFDEDRFGFVWLELKSFSLYSRVQATFRNADAPSPQAFDEMLKNIQSLTS [S278A], with “disrupting interaction”.
